Results published in patent US20220177593A1 (published 2022).
Changes are numbered by the printed parent chain.

B1: Ab301 (antibody, V domains shown)
VH: EVKLEASGGGLVQPGMSVKLSCTTSGFTFSDYWMEWVRQAPGKGLEWVAEIRNKVNNYATYYGKSVKGRFTISRDDSKSIVYLQMNSIRSEDTGIYYCNTLRLFAYWGQGTLVTVSA
VL: DIVMTQAPLSISVTPGESPSMSCRSSKSLLHRNGITYVYWYLQKPGKSPQLLIYRMSTLASGVPDRFSGSGSETDFTLKINKVEAEDVGIYYCGQLLENPYTFGAGTRLEIK
B2: Ab303 (antibody, V domains shown)
VH: EVQLVESGGGVVQPGRSLRLSCAASGFTFSDYWMEWVRQAPGKGLEWVAEIRNKVNNYATYYGKSVKGRFTISRDNSKNTLYLQMNSLRAEDTAVYYCNTLRLFAYWGQGTLVTVSS
VL: DIQMTQSPSSLSASVGDRVTITCRSSKSLLHRQGITYVYWYQQKPGKVPKLLIYRMSTLASGVPSRFSGSGSGTDFTLTISSLQPEDVATYYCGQLLENPYTFGQGTKLEIK
B3: Ab305 (antibody, V domains shown)
VH: B2 VH with V11L, A23T, A49G, N76D, N79S, T80I, L81A, R89K, A90T, S117A
VL: B2 VL
B4: Ab302 (antibody, V domains shown)
VH: B2 VH with V11L, Q13K, R16G, R19K, N76D, R89K, A90T
VL: B2 VL
B5: Ab304 (antibody, V domains shown)
VH: B2 VH with V11L, R16G, A49G, N76E, T80S, R89K, A90T, L112T
VL: B2 VL

Molecular target: human Axl expressed on the surface of cells (human, UniProt P30530 26-894)
Assay: flow cytometry

Chain of human Axl expressed on the surface of cells (P30530 26-894): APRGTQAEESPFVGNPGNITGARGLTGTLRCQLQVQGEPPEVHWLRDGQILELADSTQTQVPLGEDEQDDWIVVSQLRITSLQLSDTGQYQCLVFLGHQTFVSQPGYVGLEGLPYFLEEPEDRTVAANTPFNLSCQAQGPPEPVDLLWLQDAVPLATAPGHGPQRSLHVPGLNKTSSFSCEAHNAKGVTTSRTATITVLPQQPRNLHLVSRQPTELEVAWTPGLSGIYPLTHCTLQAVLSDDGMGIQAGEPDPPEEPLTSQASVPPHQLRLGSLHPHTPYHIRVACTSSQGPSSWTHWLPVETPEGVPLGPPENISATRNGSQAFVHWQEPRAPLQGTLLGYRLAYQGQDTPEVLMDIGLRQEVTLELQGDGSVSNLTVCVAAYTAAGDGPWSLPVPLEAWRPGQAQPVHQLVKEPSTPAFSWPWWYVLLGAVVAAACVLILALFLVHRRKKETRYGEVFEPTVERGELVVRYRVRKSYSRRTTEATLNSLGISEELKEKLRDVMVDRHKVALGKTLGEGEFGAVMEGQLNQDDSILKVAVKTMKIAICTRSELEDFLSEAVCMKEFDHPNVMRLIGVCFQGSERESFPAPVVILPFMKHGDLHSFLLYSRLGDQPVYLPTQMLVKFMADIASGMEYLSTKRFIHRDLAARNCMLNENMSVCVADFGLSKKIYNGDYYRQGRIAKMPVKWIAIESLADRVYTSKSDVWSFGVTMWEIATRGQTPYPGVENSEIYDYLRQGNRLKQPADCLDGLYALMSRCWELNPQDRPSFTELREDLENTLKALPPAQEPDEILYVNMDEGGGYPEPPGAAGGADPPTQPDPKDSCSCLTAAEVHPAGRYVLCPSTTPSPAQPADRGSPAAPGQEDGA

Row | EC50 [µg/mL] | Binder
1 | 0.025 | B1

Molecular target: recombinant human Axl-msFc (human, UniProt P30530 26-449)
Assay: ELISA; 4-P fit parameter C

Chain of recombinant human Axl-msFc (P30530 26-449): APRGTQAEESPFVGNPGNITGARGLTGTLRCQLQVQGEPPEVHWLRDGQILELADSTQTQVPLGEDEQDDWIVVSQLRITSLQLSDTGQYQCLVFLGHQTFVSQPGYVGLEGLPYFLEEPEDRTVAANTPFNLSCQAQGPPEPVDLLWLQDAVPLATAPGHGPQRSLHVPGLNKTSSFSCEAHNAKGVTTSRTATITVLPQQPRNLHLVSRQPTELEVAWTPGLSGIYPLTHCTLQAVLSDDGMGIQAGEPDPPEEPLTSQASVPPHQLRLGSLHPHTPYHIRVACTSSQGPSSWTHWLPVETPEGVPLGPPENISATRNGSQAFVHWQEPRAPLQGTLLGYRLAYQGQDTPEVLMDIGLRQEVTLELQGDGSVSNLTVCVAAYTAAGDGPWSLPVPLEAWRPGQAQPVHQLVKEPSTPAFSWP

Row | EC50 [µg/mL] | Binder
2 | 0.019 | B2
3 | 0.019 | B3
4 | 0.02 | B4
5 | 0.018 | B5
6 | 0.019 | B1

Molecular target: Axl (human, UniProt P30530 26-449, biotinylated (site not stated))
Assay: BLI

Chain of Axl (P30530 whole entry): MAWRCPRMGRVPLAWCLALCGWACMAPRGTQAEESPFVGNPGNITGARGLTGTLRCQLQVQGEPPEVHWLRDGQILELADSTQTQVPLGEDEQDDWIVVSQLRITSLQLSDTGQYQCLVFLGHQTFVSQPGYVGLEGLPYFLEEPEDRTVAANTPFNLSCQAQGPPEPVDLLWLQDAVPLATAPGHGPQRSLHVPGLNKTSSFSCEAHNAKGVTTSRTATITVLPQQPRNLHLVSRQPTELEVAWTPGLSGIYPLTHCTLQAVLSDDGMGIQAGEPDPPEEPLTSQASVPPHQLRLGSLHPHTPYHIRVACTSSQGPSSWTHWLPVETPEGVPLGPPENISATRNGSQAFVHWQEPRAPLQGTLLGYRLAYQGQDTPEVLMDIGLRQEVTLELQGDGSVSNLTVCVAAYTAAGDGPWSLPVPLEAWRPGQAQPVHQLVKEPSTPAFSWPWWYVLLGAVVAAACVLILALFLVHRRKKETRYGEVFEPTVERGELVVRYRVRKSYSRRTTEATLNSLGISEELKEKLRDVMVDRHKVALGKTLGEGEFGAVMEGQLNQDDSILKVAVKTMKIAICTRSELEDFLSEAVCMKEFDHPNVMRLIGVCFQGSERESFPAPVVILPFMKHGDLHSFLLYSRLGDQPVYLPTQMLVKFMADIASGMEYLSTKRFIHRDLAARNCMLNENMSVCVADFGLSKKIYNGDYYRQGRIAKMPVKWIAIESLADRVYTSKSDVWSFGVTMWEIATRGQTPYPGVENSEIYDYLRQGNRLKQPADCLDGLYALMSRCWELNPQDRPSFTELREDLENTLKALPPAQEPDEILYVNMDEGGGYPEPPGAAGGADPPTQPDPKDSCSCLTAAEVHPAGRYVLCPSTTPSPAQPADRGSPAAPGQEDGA

Row | Kd [nM] | Binder
7 | 0.386 | B2
8 | 1.55 | B3
9 | 0.705 | B4
10 | 0.909 | B5
11 | 0.466 | B1
